Laboratory results reported in patent US10047131B2, “Peptides and combination of peptides for use in immunotherapy against ovarian cancer and other cancers” (immatics biotechnologies GmbH, priority 2015, dated 2018).

target: HLA-A*02:01 (Homo sapiens, UniProt P04439, D140Y/D185E/D98H/E176V/E277Q/G131W/G231S/I119V/I121R/I166T/I218V/L300P/L318F/N151K/N90K/P208A/P217A/Q86G/Q94H/R138H/R169H/T345S); test: MHC binding assay (UV-ligand exchange, ELISA of exchange yield); details: binding to HLA-A*02:01, UV-ligand exchange
How it was run: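 Peptide–MHC complexes made by UV-ligand exchange, where a UV-cleavable peptide is replaced by the test peptide. Exchange yield measured by ELISA: complexes diluted 100-fold on streptavidin-coated plates, stabilized complexes detected with HRP anti-β2m, TMB read at 450 nm.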

| Peptide exchange (MHC class I binding score, peptide exchange yield) | Substance |
| --- | --- |
| “++” (≥20% = ++) | 453 (KLLEATSAV; listed as Homo sapiens) [compound 453] |
| “++” (≥20% = ++) | 455 (SLLKEPQKVQL; listed as Homo sapiens) [compound 455] |
| “+++” (≥50 = +++) | 456 (LLIGHLERV; listed as Homo sapiens) [compound 456] |
| “+++” (≥50 = +++) | 457 (SLLPGNLVEKV; listed as Homo sapiens) [compound 457] |
| “++” (≥20% = ++) | 459 (ALITEVVRL; listed as Homo sapiens) [compound 459] |
| “++++” (≥75% = ++++) | 460 (AMLEKNYKL; listed as Homo sapiens) [compound 460] |
| “+++” (≥50 = +++) | 462 (KLAKQPETV; listed as Homo sapiens) [compound 462] |
| “++++” (≥75% = ++++) | 466 (VLIANLEKL; listed as Homo sapiens) [compound 466] |
| “+++” (≥50 = +++) | 468 (YLRSVGDGETV; listed as Homo sapiens) [compound 468] |
| “+++” (≥50 = +++) | 472 (KLLEVSDDPQV; listed as Homo sapiens) [compound 472] |
| “+++” (≥50 = +++) | 473 (AMATESILHFA; listed as Homo sapiens) [compound 473] |
| “+++” (≥50 = +++) | 475 (LLLNEEALAQI; listed as Homo sapiens) [compound 475] |
| “+++” (≥50 = +++) | 476 (ALMERTGYSMV; listed as Homo sapiens) [compound 476] |
| “+++” (≥50 = +++) | 477 (ALLPASGQIAL; listed as Homo sapiens) [compound 477] |
| “+++” (≥50 = +++) | 478 (YLLHEKLNL; listed as Homo sapiens) [compound 478] |
| “+++” (≥50 = +++) | 479 (SLFGNSGILENV; listed as Homo sapiens) [compound 479] |
| “+++” (≥50 = +++) | 480 (ALLEDSCHYL; listed as Homo sapiens) [compound 480] |
| “+++” (≥50 = +++) | 481 (GLIEDYEALL; listed as Homo sapiens) [compound 481] |
| “+++” (≥50 = +++) | 485 (NVPDSFNEV; listed as Homo sapiens) [compound 485] |

| Peptide exchange (MHC class I binding score, peptide exchange yield) | Substance |
| --- | --- |
| “+++” (≥50 = +++) | 486 (AVMESIQGV; listed as Homo sapiens) [compound 486] |
| “+++” (≥50 = +++) | 487 (LLINSVFHV; listed as Homo sapiens) [compound 487] |
| “+++” (≥50 = +++) | 489 (KMWEELPEVV; listed as Homo sapiens) [compound 489] |
| “++” (≥20% = ++) | 491 (GLNDRSDAV; listed as Homo sapiens) [compound 491] |
| “+++” (≥50 = +++) | 497 (GLLEKLTAI; listed as Homo sapiens) [compound 497] |
| “+++” (≥50 = +++) | 498 (KLWTGGLDNTV; listed as Homo sapiens) [compound 498] |
| “++” (≥20% = ++) | 499 (KIFDIDEAEEGV; listed as Homo sapiens) [compound 499] |
| “+++” (≥50 = +++) | 500 (SLMEDQVLQL; listed as Homo sapiens) [compound 500] |
| “+++” (≥50 = +++) | 503 (SLNHFTHSV; listed as Homo sapiens) [compound 503] |
| “++” (≥20% = ++) | 504 (GLSDGNPSL; listed as Homo sapiens) [compound 504] |
| “+++” (≥50 = +++) | 507 (KLIDDQDISISL; listed as Homo sapiens) [compound 507] |
| “++” (≥20% = ++) | 511 (FLDPYCSASV; listed as Homo sapiens) [compound 511] |
| “+++” (≥50 = +++) | 512 (SLSEIVPCL; listed as Homo sapiens) [compound 512] |
| “++” (≥20% = ++) | 513 (SLWPSPEQL; listed as Homo sapiens) [compound 513] |
| “+++” (≥50 = +++) | 514 (ILVDWLVQV; listed as Homo sapiens) [compound 514] |
| “++” (≥20% = ++) | 516 (AVGPASILKEV; listed as Homo sapiens) [compound 516] |
| “+++” (≥50 = +++) | 517 (LLMPIPEGLTL; listed as Homo sapiens) [compound 517] |
| “+++” (≥50 = +++) | 518 (KLNAEVACV; listed as Homo sapiens) [compound 518] |
| “+++” (≥50 = +++) | 519 (GLLHLTLLL; listed as Homo sapiens) [compound 519] |

More lines, now with the values behind:

| Substance | Peptide exchange (MHC class I binding score, peptide exchange yield) |
| --- | --- |
| 451 (LLLLDTVTMQV; listed as Homo sapiens) [compound 451] | “++” (≥20% = ++) |
| 452 (ILLEHGADPNL; listed as Homo sapiens) [compound 452] | “+++” (≥50 = +++) |
| 454 (KLPPPPPQA; listed as Homo sapiens) [compound 454] | “+++” (≥50 = +++) |
| 458 (SLIDKLYNI; listed as Homo sapiens) [compound 458] | “++” (≥20% = ++) |
| 461 (VMFRTPLASV; listed as Homo sapiens) [compound 461] | “++” (≥20% = ++) |
| 463 (SLVESHLSDQLTL; listed as Homo sapiens) [compound 463] | “+++” (≥50 = +++) |
| 464 (ALNDCIYSV; listed as Homo sapiens) [compound 464] | “+++” (≥50 = +++) |
| 465 (QLCDLNAEL; listed as Homo sapiens) [compound 465] | “+++” (≥50 = +++) |
| 467 (FLAKDFNFL; listed as Homo sapiens) [compound 467] | “+++” (≥50 = +++) |
| 469 (YLASDEITTV; listed as Homo sapiens) [compound 469] | “+++” (≥50 = +++) |
| 471 (YLYNNMIAKI; listed as Homo sapiens) [compound 471] | “+++” (≥50 = +++) |
| 474 (YLDPALELGPRNV; listed as Homo sapiens) [compound 474] | “+++” (≥50 = +++) |
| 484 (SLIEKVTQL; listed as Homo sapiens) [compound 484] | “+++” (≥50 = +++) |
| 488 (FLAEDPKVTL; listed as Homo sapiens) [compound 488] | “+++” (≥50 = +++) |
| 490 (FLLQHVQEL; listed as Homo sapiens) [compound 490] | “+++” (≥50 = +++) |
| 492 (SLFDGFADGLGV; listed as Homo sapiens) [compound 492] | “+++” (≥50 = +++) |
| 493 (GLLGEKTQDLIGV; listed as Homo sapiens) [compound 493] | “+++” (≥50 = +++) |
| 494 (ALQPEPIKV; listed as Homo sapiens) [compound 494] | “++” (≥20% = ++) |
| 495 (FIFSEKPVFV; listed as Homo sapiens) [compound 495] | “+++” (≥50 = +++) |
| 496 (FLVEKQPPQV; listed as Homo sapiens) [compound 496] | “+++” (≥50 = +++) |
| 501 (LLDPNVKSIFV; listed as Homo sapiens) [compound 501] | “+++” (≥50 = +++) |
| 502 (RLLAQVPGL; listed as Homo sapiens) [compound 502] | “+++” (≥50 = +++) |
| 505 (SLAPGDVVRQV; listed as Homo sapiens) [compound 505] | “++” (≥20% = ++) |
| 506 (KLLGKVETA; listed as Homo sapiens) [compound 506] | “+++” (≥50 = +++) |
| 508 (ILAQEQLVVGV; listed as Homo sapiens) [compound 508] | “+++” (≥50 = +++) |
| 509 (FLFDTKPLIV; listed as Homo sapiens) [compound 509] | “+++” (≥50 = +++) |
| 510 (KLYSVVSQL; listed as Homo sapiens) [compound 510] | “++” (≥20% = ++) |
| 515 (LLQELVLFL; listed as Homo sapiens) [compound 515] | “+++” (≥50 = +++) |
| 520 (LAVHPSGVAL; listed as Homo sapiens) [compound 520] | “+” (≥10% = +) |
